Test results from patent publication EP3196312B1, “EFFICIENT CONVERSION OF METHYLGLYOXAL INTO HYDROXYACETONE USING NOVEL ENZYMES AND APPLI CATIONS THEREOF” (Metabolic Explorer, priority 2016, dated 2017).

Columns and labels:
[1] = test system: CC(=O)C=O; assay: Methylglyoxal reductase kinetic parameters of purified enzyme (NAD(P)H consumption at 340 nm); type: biochemical, Escherichia coli; details: other: substrate methylglyoxal 0.1-40 mM, cofactor NADH, 100mM MES-KOH (pH6.5) 0.1mM FeSO4 30mM ammonium sulfate, 30°C, pH 6.5
Protocol: For strain 14, the purification protocol was previously described in patent application WO 2015/173247. Table 3: Protein storage buffer
(§1) Methylglyoxal reductase activity (MGR) was determined by measuring the consumption of NAD(P)H at 340 nm on a spectrophotometer at 30°C (λ340 = 6290 M^-1 cm^-1). The reaction mixture (1mL) containing assay buffer and purified enzyme was incubated for 5 min at 30°C. Then, 0.1-40 mM methylglyoxal was added to start the reaction. One unit of enzyme activity was defined as the amount of enzyme catalyzing the decrease of 1µmol of NAD(P)H per min. Kinetic parameters were determined with Sigmaplot.

[2] = test system: CC(=O)C=O; assay: as above; type: biochemical, Escherichia coli; details: other: substrate methylglyoxal 0.1-40 mM, cofactor NADPH, pH 7.5
Protocol: Except for the strain 18, the proteins were purified from the crude cell-extract by affinity on a Profinity column (BIORAD, Bio-Scale Mini Profinity exact cartridge 5 ml) according to the protocol recommended by the manufacturer. The crude extract was loaded on a 5 ml Profinity exact cartridge equilibrated with 100 mM potassium phosphate pH 7.6. The column was washed with 10 column volumes of the same buffer and incubated 30min with 100 mM potassium phosphate pH 7.6, 100 mM fluoride at room temperature. The protein was eluted from the column with 2 column volumes of 100 mM potassium phosphate pH 7.6. The tag remained tightly bound to the resin and the purified protein was released. The fractions containing the protein were pooled, concentrated and loaded on a gel filtration column (Superdex 200 10/300 GL column, GE Healthcare) equilibrated with different storage buffers (Table 3). Protein concentration was measured using the Bradford protein assay.
as §1

In the case of “Escherichia coli GldA (glycerol dehydrogenase) variant GldA*(A160T), SEQ ID NO: 17 (Escherichia coli K-12; A160T)”, the Km [1] is reported as 3.17 mM and the kcat/Km [1] is reported as 7800 M⁻¹ s⁻¹.
For “Escherichia coli YdjG variant YdjG*(D232E), SEQ ID NO: 101 (Escherichia coli K-12; D232E)”, the Km ([2]; 20mM Hepes (pH7.5), 30°C) was 3.25 mM and the kcat/Km ([2]; 20mM Hepes (pH7.5), 30°C) was 10 M⁻¹ s⁻¹.
“Escherichia coli YqhD variant YqhD*(G149E), SEQ ID NO: 9 (Escherichia coli K-12; G149E)” gave a Km ([2]; 20mM Hepes (pH7.5) 0.1mM ZnSO4, 30°C) of 2.92 mM.
